This is an account of results in the nanobody polyreactivity screen of Harvey et al. (2022).

This data set is described as follows: yeast display, Sf9 membrane polyspecificity reagent, FACS + sequencing; frameworks hold sequencing errors. An outline of the steps: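 Nanobodies from a synthetic yeast display library (Saccharomyces cerevisiae BJ5465), induced 36–48 hours with galactose, were stained 1 hour at 4 °C with 10% biotinylated, detergent-solubilized Sf9 membrane reagent, enriched on streptavidin microbeads, then FACS-sorted. Anti-HA (expression) and streptavidin (reagent binding) fluorescence set low and high (top ~1%) gates. Polyreactivity labels come from the gate of origin. Genes were colony-PCR amplified, MiSeq 2 × 250 sequenced and filtered by CDR length.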
As for “QVQLVESGGGLVQAGGSLRLSCAASGFTFRGNAMGLYRQAPRKERELVATITYNAGSTYYADSVKGRFTISRDNAKNTVYLQMNSLKPEDTAVYYCAVELDSVPDYEPWTEYDYWGQGTQVTVSS”, the “polyreactivity (PSR sort gate)” value is “low polyreactivity”.
For “QVQLVESGGGLVQAGGSLRLSCAASGFTFRGYAMGWYRPAPGKERELVAAIRGGGGRTYYADSVKGRFTISRDNAKNTVYLQMNSLKPEDTAVYYCAKVVSIRNDEYDYWGQGTQVTVSS”, the “polyreactivity (PSR sort gate)” value is on record as “high polyreactivity”.
As to “QVQLVESGGGLVQAGGSLRLSCAASGFTFRGYAMGWYRQAPGKERELVADITSGGSTYYADSVKGRFTISRDNAKNTVYLQMNSLKPEDTAVYYFATDILYWSDYAYEGYYTLDYYWGQGTQVTVSS”, the “polyreactivity (PSR sort gate)” value is listed as “high polyreactivity”.
Take “QVQLVESGGGLVQAGGSLRLSCAASGFTFRGYVMGGYRQAPGKERELVAAITNIGTSTYYAHSVKGRFTISRDNAKNTVYVQMNSLKPEDTGVFFCAARLSTKFYYWGQVTQVTVSS”: the “polyreactivity (PSR sort gate)” value is recorded as “low polyreactivity”.
As to “QVQLVESGGGLVQAGGSLRLSCAASGFTFRHNGMGWYIQAPGKERELVATITWSGGRTSYADSVKGRFTISRDNAKNTVYLQMNSLKPEDTAVYYCAARFFSYSQYAYNYWGQGTQVTVSS”, the “polyreactivity (PSR sort gate)” value is “high polyreactivity”.
With “QVQLVESGGGLVQAGGSLRLSCAASGFTFRIYAMGWYRQAPGKERELVAAITSSGGTTYYADSVKGRFTISRDNAKNTVYLQMNSLKPEDTAVYYCNVAGFKYYSWGTYDYWGQGTQVTVSS”, the “polyreactivity (PSR sort gate)” value was “high polyreactivity”.
For “QVQLVESGGGLVQAGGSLRLSCAASGFTFRIYAMGWYRQAPGKERELVAAITSVGSTYYADSVKGRFTISRDNAKNTVYLQMNRLKPEDTAVYYCNARATYYRFRYPYGYWGQGTQVTVSS” the value was “high polyreactivity”; for “QVQLVESGGGLVQAGGSLRLSCAASGFTFRIYTMGWYRQAPGKERELVAAISSRGGSTYYADSVKGRFTISRDNAKNTVDLQMNSLKPEDTAVYYCAASGRVYSSGYDYWGQGTQVTVSS”, “high polyreactivity”; for “QVQLVESGGGLVQAGGSLRLSCAASGFTFRKYAMGWYRQAPGKERELVASITSGGSTYYADSVKGRFTISRDNAKNTVYLQMNSLKPEDTAVYYCNAVKATLASGRLRGAYYYWGQGTQVTVSS”, “high polyreactivity”.
Turning to “QVQLVESGGGLVQAGGSLRLSCAASGFTFRQYALGWYRQAPGKERELVAAISSGGSTYYADSVKGRFTISRDNAKNTVYLQMNSLKPEDTAVYYCNAVARYYVAYDMYWGQGTQVTVSS”, the “polyreactivity (PSR sort gate)” value was “high polyreactivity”.
Turning to “QVQLVESGGGLVQAGGSLRLSCAASGFTFRQYSMGWYRQARGKERELVAGISSSGGSTRYADSVKGRFTISRDNAKNTVYFQMNSLKPEDTAVYYCAARIASHHYYYWGQVTQVTVSS”, the “polyreactivity (PSR sort gate)” value was “high polyreactivity”.
In the case of “QVQLVESGGGLVQAGGSLRLSCAASGFTFRRNAMGWYRQAPGKERELVAAITGRGTGTYYADSVKGRFTISRDNAKNTVYLQMNSLKPEDTAVYYCNADPVRYLFTRYDYWGQGTQVTVSS”, the “polyreactivity (PSR sort gate)” value is given as “high polyreactivity”.
Turning to “QVQLVESGGGLVQAGGSLRLSCAASGFTFRRNAMGWYRQAPGKERELVAVITTAGSTNYADSVKGRFTISRDNAKNTVYLQMTSLKPEDTAVYYCATDNGTRKRRYDYWGQGTQVNVSS”, the “polyreactivity (PSR sort gate)” value is “low polyreactivity”.
On to “QVQLVESGGGLVQAGGSLRLSCAASGFTFRRNVMGWYRQAPGKERELVAAIRGSDGSTYYADSVKGRFTISRDNAKNTVYLQMNSLKPEDTAVYYCNVVGKGLYRKMGYWGQGTQVTVSS”, for which the “polyreactivity (PSR sort gate)” value is reported as “high polyreactivity”.
Under “QVQLVESGGGLVQAGGSLRLSCAASGFTFRRYAMGWYRQAPGKERELVAGITGRGGSTYYADSVKGRFTISRDNSKNTVYLQMNSLKPEDTAVYYCNKPRAARGYLTGQLDYWGQGTQVTVSS” stands “high polyreactivity”.
In the case of “QVQLVESGGGLVQAGGSLRLSCAASGFTFRRYAMGWYRQAPGKERVLVAAITRGSSTYYADSVKGRFTISRDNEKNTVYLQMNSLKPEDTAVYYCAAAGFWSRPSDYWGQGTQVTVSS”, the “polyreactivity (PSR sort gate)” value is listed as “low polyreactivity”.
With “QVQLVESGGGLVQAGGSLRLSCAASGFTFRRYDMGWYRQAPGKERELVATINRGGSTDYADSVKGRFTISRDNAKNTVYLQMNSLKAEDTAVYYCATRYYSSRTWSEYYYWGQGTKVTVSS”, the “polyreactivity (PSR sort gate)” value is listed as “high polyreactivity”.
Take “QVQLVESGGGLVQAGGSLRLSCAASGFTFRRYTMGWYRQAPGKERELVAAISGRGGRTYYADSVKGRFTISRDNSKNTVYLQMNSLNPEDTAVYYCAADTQYWQSSKYDYWGQGTQVTVSS”: the “polyreactivity (PSR sort gate)” value is on record as “high polyreactivity”.
As for “QVQLVESGGGLVQAGGSLRLSCAASGFTFRSYAMGWYRQAPGKERELVAGITWRGGRTYYADSVKGRFTISRDNAKNTVYLQMNSLKPEDTAVYYCAVRNASKNRKYYYWGQGTQVTVSS”, the “polyreactivity (PSR sort gate)” value is “high polyreactivity”.
For “QVQLVESGGGLVQAGGSLRLSCAASGFTFRSYTMGWYRQAPGKERELVAAITSRGTSTYYADSVKGRFTISRDNAKNTVYLQMNSLKPEDTAVYYCADPIYNGYASWQVYYWGQGTQVTVSS”, the “polyreactivity (PSR sort gate)” value is on record as “high polyreactivity”.
As to “QVQLVESGGGLVQAGGSLRLSCAASGFTFRTNAMGWYRQAPGKERELVAAISRSGGSTYYADSVKGRFTISRDNAKNTVYLQMNSLKPEDTAVYYCATVKVSHRRYDYWGQGTQVTLSS”, the “polyreactivity (PSR sort gate)” value is recorded as “high polyreactivity”.
Regarding “QVQLVESGGGLVQAGGSLRLSCAASGFTFRTYAMGWYRQAPGKEREFVAAITTSGGSTYYADSVKGRFTISRDNAKNTVYLQMNSLKPEDTAVYYCAAKKATVVYRMEYWGQGTQVTVSS”, the “polyreactivity (PSR sort gate)” value is on record as “high polyreactivity”.
For “QVQLVESGGGLVQAGGSLRLSCAASGFTFRTYAMGWYRQAPGKERELVAAISRSGGSTDYADSVKGRFTISRDTAKNTVYLQMNSLKPEHTAVYYCNAVRRAEYDYWGQGTQVTVSS” the value was “high polyreactivity”; for “QVQLVESGGGLVQAGGSLRLSCAASGFTFRTYAMGWYRQAPGKVRELVAAITVSGGTYYADSVKGRFTISRDNAKNTVYLQMNSLKPEDTAVYYCTAKRFRTGLDYWGQGTQVTVSS”, “low polyreactivity”; for “QVQLVESGGGLVQAGGSLRLSCAASGFTFRVYVMGWYREAPGKERELVAGITRTGRTYYADSVKGRFTISRDNAKNTVYLQMNSLKPEDTAVYYCAATRPYSHRDYYYWGQGTQVTVSS”, “high polyreactivity”.
Regarding “QVQLVESGGGLVQAGGSLRLSCAASGFTFRWYTMGWYRQAPGKEREFVAAISSSGGSTYYADSVKGRFTISRDNAKNTVYLQMKSLKPEDTAVYYCARASRGYTYEYWGQGTQVTVSS”, the “polyreactivity (PSR sort gate)” value is “high polyreactivity”.
Turning to “QVQLVESGGGLVQAGGSLRLSCAASGFTFRYNAMGWYRQAPGKERELVAAITNGGSTYADSVKGRFTISRDNAKNTVYLQMNSLKPEDTAVYYCAADYFVLTYYLWCYSPYKSFYYWGQGTQVTVSS”, the “polyreactivity (PSR sort gate)” value was “low polyreactivity”.
Take “QVQLVESGGGLVQAGGSLRLSCAASGFTFRYNAMGWYRQAPGKERELVAGISWTSGSTYYADSVKGRFTISRDNAKNTVYLQMNSLKPEDTAVYYCAAYYRRDAALYGYWGQGTQVTVSS”: the “polyreactivity (PSR sort gate)” value is “high polyreactivity”.
Consider “QVQLVESGGGLVQAGGSLRLSCAASGFTFRYNAMGWYRQAPGKERELVATISWRGTSTYYADSVKGRFTISRDNAKNTVYLQMNSLKPEDTAVYYCAALGTVGYDYWGQGTQVTVSS”, for which the “polyreactivity (PSR sort gate)” value is “low polyreactivity”.
Consider “QVQLVESGGGLVQAGGSLRLSCAASGFTFRYNTMGGYRQAPGKERELVAAISSSGSSTYYADSVKGRFTISRDNAKNTVYLQMNSLKPEDTAVYYCNAVHRRTRYGYWGQGTQVTVSS”, for which the “polyreactivity (PSR sort gate)” value is listed as “high polyreactivity”.
For “QVQLVESGGGLVQAGGSLRLSCAASGFTFRYYAMGWSRQAPGKERELVARITSGGSTNYADSVKGRFTISRDNAKNTVYLQMNSLKPEDTAVYYCAASPYRYWRMYSWGQGTQVTVSS” the value was “high polyreactivity”; for “QVQLVESGGGLVQAGGSLRLSCAASGFTFRYYAMGWYRPAPGKEREFVAAISKSGGTTDYADSVKGRFTISRDNAKNTVYLQMSSLKPEDTAVYYCAKSGGRLWYVWRRYGYWGQGTQVTVSS”, “high polyreactivity”.
As to “QVQLVESGGGLVQAGGSLRLSCAASGFTFRYYAMGWYRPAPGKERELVATISRGGSTNYADSVKGRFTISRDNAKNTVYLQMNSLKPEDTAVYYCNARIYKGYNYWGQGTQVTVSS”, the “polyreactivity (PSR sort gate)” value is given as “high polyreactivity”.
Regarding “QVQLVESGGGLVQAGGSLRLSCAASGFTFRYYAMGWYRQAPGKEREFVAAISWDGGITYYADSVKGRFTISRDNAKNTVYLQMNSLKPEDTAVYYCAADVIWESDYWGQGTQVTVSS”, the “polyreactivity (PSR sort gate)” value is “high polyreactivity”.
For “QVQLVESGGGLVQAGGSLRLSCAASGFTFRYYAMGWYRQAPGKERELVAAISWSGGSTYYADSVKGRFTISRDNAKNTVYLQMNSLKPEDTAVYYCNAYAYYSHGVTTTYDYWGQGTQVTVSS” the value was “high polyreactivity”; for “QVQLVESGGGLVQAGGSLRLSCAASGFTFRYYAMGWYRQAPGKERELVAAITSRGGSTYYADSVKGRFTISRDNAKNTVYLQMNSLKPEDTAVYYCAAETWRPSPYSRVSTYDYWGQGTQVTVSS”, “high polyreactivity”.
As for “QVQLVESGGGLVQAGGSLRLSCAASGFTFRYYAMGWYRQAPGKERELVAGITWSGTNTYYADSVKGRFTISRDNAKNTVYLQMNSLKPEDTAVYYCITSPYLHYYYWGQGTQVTVSS”, the “polyreactivity (PSR sort gate)” value is “high polyreactivity”.
Turning to “QVQLVESGGGLVQAGGSLRLSCAASGFTFRYYAMGWYRQAPRKERELVAAIPRNGGSTYYADTVKGRFTISRDNAKNTVYLQMKSLKPEDTAVYYCAAAYYRDSDRRFNYWGQGTQVTVSS”, the “polyreactivity (PSR sort gate)” value is “high polyreactivity”.
In the case of “QVQLVESGGGLVQAGGSLRLSCAASGFTFRYYTMGWYRQAPGKERELVAAITASGSSTYYADSVKGRFTISRDNAKNTVYLQMNSLKPEDTAVYYSKALHFYGVGRYDHWGQGNQVTVSS”, the “polyreactivity (PSR sort gate)” value is recorded as “high polyreactivity”.
For “QVQLVESGGGLVQAGGSLRLSCAASGFTFRYYTMGWYRQAPGKERELVASISRRGGSTYYADSVKGRFTISRDNAKNTVFLQMNSLKPEDTAVYYCNTLSQVFASRAPKFDYWGQGTQVTVSS” the value was “high polyreactivity”.
“QVQLVESGGGLVQAGGSLRLSCAASGFTFSAYAMGWYRQAPGKERELVAAITRSGGSTYYADSVKGRFTISRDNAKNTVYLQMNSLKPEDTAVYYCAKSDRPWWGYYYQFDYWGQGTQVTVSS”: the “polyreactivity (PSR sort gate)” value is listed as “low polyreactivity”.
